Experimental data published in patent publication US20140087995A1 (published 2014).
Where two headings read alike, the source gives them in different places. Numbered stars: 1 amine (or outer) side, 2 acyl side, 3 side chain; on linkers, the order of the positions; unused ones are H or OH. Bridge positions count the residues as written; N and C are the ends. Side chains are listed from the residue outwards. Ends that are not written are not given here. * marks the point of attachment. C20 diacid = O=C(O)CCCCCCCCCCCCCCCCCCC(=O)*; γGlu = O=C(O)[C@H](CCC(=O)[*:2])N[*:1]; AEEA = NCCOCCOCC(=O)O

T1: rat calcitonin receptor (rat, UniProt P32214 25-516)
T1 construct: whole, on cells; also called rCTR; rat calcitonin (a) receptor
T1 sequence (looked up): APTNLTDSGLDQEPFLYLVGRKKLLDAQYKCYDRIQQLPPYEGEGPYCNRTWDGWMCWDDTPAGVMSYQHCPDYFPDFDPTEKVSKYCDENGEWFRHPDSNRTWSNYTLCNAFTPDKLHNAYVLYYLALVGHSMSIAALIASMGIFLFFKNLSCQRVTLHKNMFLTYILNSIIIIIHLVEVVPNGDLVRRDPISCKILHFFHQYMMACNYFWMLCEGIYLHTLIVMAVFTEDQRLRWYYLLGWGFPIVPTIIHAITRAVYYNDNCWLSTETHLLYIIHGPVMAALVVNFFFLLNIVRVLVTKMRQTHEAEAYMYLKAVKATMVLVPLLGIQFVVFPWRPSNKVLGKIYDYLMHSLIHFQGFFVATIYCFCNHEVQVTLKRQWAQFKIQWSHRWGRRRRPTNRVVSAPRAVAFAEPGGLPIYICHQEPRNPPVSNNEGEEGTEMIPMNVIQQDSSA

T2: human calcitonin receptor (human, UniProt P30988 25-474)
T2 construct: whole, on cells; also called hCTR; hCT
T2 sequence (looked up): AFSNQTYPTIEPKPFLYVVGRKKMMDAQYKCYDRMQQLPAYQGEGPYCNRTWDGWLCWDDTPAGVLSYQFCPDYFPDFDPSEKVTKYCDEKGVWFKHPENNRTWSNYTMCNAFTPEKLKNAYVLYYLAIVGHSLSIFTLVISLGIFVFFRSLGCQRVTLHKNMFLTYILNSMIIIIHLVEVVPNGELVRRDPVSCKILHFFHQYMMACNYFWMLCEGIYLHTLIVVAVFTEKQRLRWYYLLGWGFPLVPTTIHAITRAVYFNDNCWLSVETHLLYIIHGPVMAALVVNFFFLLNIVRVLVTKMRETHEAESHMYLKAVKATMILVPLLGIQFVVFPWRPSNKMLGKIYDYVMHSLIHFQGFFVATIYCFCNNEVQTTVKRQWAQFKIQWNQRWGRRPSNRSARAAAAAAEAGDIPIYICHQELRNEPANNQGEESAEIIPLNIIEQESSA

T3: rat amylin receptor (rat calcitonin receptor + rat RAMP 3) (rat, UniProt P32214 25-516; Q9JJ73 23-147)
T3 construct: whole, on cells; also called rAmylin-R; rat amylin 3(a) receptor
T3 sequence (looked up) 1: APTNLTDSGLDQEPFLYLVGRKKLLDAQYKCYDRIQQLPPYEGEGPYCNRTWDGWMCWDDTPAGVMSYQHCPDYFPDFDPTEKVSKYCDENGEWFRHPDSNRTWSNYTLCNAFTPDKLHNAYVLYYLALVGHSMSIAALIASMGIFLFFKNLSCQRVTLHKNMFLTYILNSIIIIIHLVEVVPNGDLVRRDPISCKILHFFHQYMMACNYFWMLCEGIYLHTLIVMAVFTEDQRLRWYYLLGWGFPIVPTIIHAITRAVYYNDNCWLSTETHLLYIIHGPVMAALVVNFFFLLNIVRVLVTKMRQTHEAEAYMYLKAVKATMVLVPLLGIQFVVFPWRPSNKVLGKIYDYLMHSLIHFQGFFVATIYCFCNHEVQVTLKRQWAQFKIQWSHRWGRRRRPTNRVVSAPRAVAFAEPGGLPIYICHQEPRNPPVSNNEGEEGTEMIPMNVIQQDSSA
T3 sequence (looked up) 2: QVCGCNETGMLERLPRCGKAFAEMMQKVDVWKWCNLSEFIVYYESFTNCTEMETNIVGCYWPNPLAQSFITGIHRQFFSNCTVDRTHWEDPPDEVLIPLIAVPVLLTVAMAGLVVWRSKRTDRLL

T4: rat calcitonin receptor (rat, UniProt P32214 25-516)
T4 construct: whole, on cells; Membranes of transiently transfected BHK tk'ts 13 cells (Assay VIII); also called rCTR
T4 sequence (looked up): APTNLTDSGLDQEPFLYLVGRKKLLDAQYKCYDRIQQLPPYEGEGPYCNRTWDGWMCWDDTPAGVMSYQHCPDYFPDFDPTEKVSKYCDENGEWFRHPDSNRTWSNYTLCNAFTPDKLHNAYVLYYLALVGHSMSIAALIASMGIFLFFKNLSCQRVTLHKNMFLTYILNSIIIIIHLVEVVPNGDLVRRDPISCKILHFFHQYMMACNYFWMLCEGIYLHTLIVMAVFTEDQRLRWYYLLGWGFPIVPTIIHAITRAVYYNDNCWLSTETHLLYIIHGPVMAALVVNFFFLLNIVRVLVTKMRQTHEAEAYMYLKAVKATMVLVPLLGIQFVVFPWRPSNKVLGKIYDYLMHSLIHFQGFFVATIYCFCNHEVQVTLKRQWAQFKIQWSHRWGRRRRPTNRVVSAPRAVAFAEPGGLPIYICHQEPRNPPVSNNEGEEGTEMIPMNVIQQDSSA

T5: human calcitonin receptor (human, UniProt P30988 25-474)
T5 construct: whole, on cells; Membranes of a stably transfected BHK cell line (Assay VII); also called hCTR; hCT
T5 sequence (looked up): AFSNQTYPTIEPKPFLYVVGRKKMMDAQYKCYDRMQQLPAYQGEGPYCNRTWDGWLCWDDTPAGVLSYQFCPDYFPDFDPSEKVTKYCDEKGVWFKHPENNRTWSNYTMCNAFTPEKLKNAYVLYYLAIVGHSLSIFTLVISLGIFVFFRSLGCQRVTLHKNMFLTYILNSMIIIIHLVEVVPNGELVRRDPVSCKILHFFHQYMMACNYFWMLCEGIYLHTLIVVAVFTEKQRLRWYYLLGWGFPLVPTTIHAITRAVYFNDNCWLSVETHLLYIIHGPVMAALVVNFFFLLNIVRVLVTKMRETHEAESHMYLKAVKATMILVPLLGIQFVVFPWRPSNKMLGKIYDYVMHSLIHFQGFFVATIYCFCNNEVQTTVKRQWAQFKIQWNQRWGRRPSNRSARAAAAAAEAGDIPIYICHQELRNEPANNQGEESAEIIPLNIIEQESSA

T6: rat amylin receptor (rat calcitonin receptor + rat RAMP 3) (rat, UniProt P32214 25-516; Q9JJ73 23-147)
T6 construct: whole, on cells; Membranes of transiently transfected BHK tk'ts 13 cells (Assay VI); also called rAmylin-R; rat amylin 3(a) receptor
T6 sequence (looked up) 1: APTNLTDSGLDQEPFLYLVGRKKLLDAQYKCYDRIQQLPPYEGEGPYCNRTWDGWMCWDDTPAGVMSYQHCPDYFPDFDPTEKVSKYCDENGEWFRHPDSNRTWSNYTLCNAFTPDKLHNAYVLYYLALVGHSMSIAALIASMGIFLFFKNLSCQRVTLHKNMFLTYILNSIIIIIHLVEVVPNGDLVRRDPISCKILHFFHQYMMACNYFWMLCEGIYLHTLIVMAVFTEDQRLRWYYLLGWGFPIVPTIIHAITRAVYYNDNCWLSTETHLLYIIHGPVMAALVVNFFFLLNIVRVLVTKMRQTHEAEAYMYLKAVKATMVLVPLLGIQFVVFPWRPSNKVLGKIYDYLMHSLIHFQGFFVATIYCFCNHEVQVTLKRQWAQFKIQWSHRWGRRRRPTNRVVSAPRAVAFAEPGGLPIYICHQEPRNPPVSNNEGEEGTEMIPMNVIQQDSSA
T6 sequence (looked up) 2: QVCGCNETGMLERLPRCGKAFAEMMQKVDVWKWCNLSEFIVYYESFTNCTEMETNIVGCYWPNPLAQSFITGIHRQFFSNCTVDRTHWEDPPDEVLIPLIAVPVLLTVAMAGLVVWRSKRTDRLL


What was measured:
[1] = biological target: T1, rat calcitonin receptor; test: ratio of binding IC50s: rat calcitonin receptor over rat amylin receptor (reference)
[2] = biological target: T2, human calcitonin receptor; test: ratio of binding IC50s: human calcitonin receptor over human amylin receptor (reference)
Method: The resulting pellet was resuspended, homogenized and centrifuged (20.000 rpm, 15 min) in a buffer containing 20 mM Na-HEPES and 0.1 mM EDTA (pH 7.4, buffer 2). The resulting pellet was resuspended in buffer 2 and protein concentration was measured (BCA protein Assay, Pierce). The homogenate was kept cold during the whole procedure. The membranes were kept at −80° C. until use. The assay was performed in a 384 well Optiplate (PerkinElmer) in a total volume of 40 ul. Membranes were mixed with SPA beads. Final concentration of membranes 35 ng/μL final and SPA beads was 0.05 mg/well. Test-compounds were dissolved in DMSO and further diluted in assay buffer (50 mM Hepes, pH 7.4, 1 mM CaCl2, 5 mM MgCl₂, 0.1% OA and 0.02% Tween20). […] The final mixture was incubated with shaking at 400 rpm for 120 min at 25° C. prior to centrifugation (1500 rpm, 10 min). Samples were analyzed on TopCounter™ (Packard). The IC₅₀ was calculated using (one site binding competition analysis) GraphPad Prism5 as a measure of receptor affinity.
Membranes were prepared in the following way; the cells were rinsed with PBS and incubated with Versene for approximately 5 min before harvesting. The cells were flushed with PBS and the cell-suspension was centrifuged for 5 min at 1000 rpm. Cells were homogenized (Ultrathurrax) in a buffer containing 20 mM Na-HEPES and 10 mM EDTA (pH 7.4) and centrifuged at 20.000 rpm for 15 min. The resulting pellet was resuspended, homogenized and centrifuged (20.000 rpm, 15 min) in a buffer containing 20 mM Na-HEPES and 0.1 mM EDTA (pH 7.4, buffer 2). The resulting pellet was resuspended in buffer 2 and protein concentration was measured (BCA protein Assay, Pierce). The homogenate was kept cold during the whole procedure. The membranes were kept at −80° C. until use. Assay was performed in a 384 well Optiplate (PerkinElmer) in a total volume of 40 ul. Membranes were mixed with SPA beads.

[3] = biological target: T1, rat calcitonin receptor; test: SPA competition with 125I-calcitonin, membranes of BHK cells with rat calcitonin receptor (Assay VIII)
[4] = biological target: T3, rat amylin receptor (rat calcitonin …); test: SPA competition with 125I-rat amylin, membranes of BHK cells with rat calcitonin receptor + rat RAMP3 (Assay VI)
[5] = biological target: T4, rat calcitonin receptor; test: ratio IC50 rat calcitonin receptor / IC50 rat amylin receptor (reference)
[6] = biological target: T5, human calcitonin receptor; test: ratio IC50 human calcitonin receptor / IC50 human amylin receptor (reference)
Procedure, shortened: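 Membranes (35 ng/μL final) + SPA beads, 50 mM Hepes pH 7.4 buffer with 1 mM CaCl2, 5 mM MgCl₂, 0.1% OA, 0.02% Tween20; 120 min, 25° C, shaking; centrifuged, counted; IC₅₀ by one-site binding competition.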

[7] = biological target: T4, rat calcitonin receptor; test: SPA competition with 125I-calcitonin, membranes of BHK cells with rat calcitonin receptor (Assay VIII)
[8] = biological target: T6, rat amylin receptor (rat calcitonin …); test: SPA competition with 125I-rat amylin, membranes of BHK cells with rat calcitonin receptor + rat RAMP3 (Assay VI)

Binder | Ratio rCT/rAmylin binding [1] | Ratio hCT/hAmylin binding [2] | IC50 [3] [nM] | IC50 [4] [nM] | Ratio rCT/rAmylin binding [5] | Ratio hCT/hAmylin binding [6] | IC50 [7] [nM] | IC50 [8] [nM]
K([AEEA-γGlu-C20 diacid])CNTATCATQRLAAFLRHSSPNFGAIPSSTPVGSNTY-NH2 (disulfide 2-7; N-terminus assumed; SMILES CC[C@H](C)[C@H](NC(=O)[C@H](C)NC(=O)CNC(=O)[C@H](Cc1ccccc1)NC(=O)[C@H](CC(N)=O)NC(=O)[C@@H]1CCCN1C(=O)[C@H](CO)NC(=O)[C@H](CO)NC(=O)[C@H](Cc1c[nH]cn1)NC(=O)[C@H](CCCNC(=N)N)NC(=O)[C@H](CC(C)C)NC(=O)[C@H](Cc1ccccc1)NC(=O)[C@H](C)NC(=O)[C@H](C)NC(=O)[C@H](CC(C)C)NC(=O)[C@H](CCCNC(=N)N)NC(=O)[C@H](CCC(N)=O)NC(=O)[C@@H](NC(=O)[C@H](C)NC(=O)[C@@H]1CSSC[C@H](NC(=O)[C@@H](N)CCCCNC(=O)COCCOCCNC(=O)CC[C@H](NC(=O)CCCCCCCCCCCCCCCCCCC(=O)O)C(=O)O)C(=O)N[C@@H](CC(N)=O)C(=O)N[C@@H]([C@@H](C)O)C(=O)N[C@@H](C)C(=O)N[C@@H]([C@@H](C)O)C(=O)N1)[C@@H](C)O)C(=O)N1CCC[C@H]1C(=O)N[C@@H](CO)C(=O)N[C@@H](CO)C(=O)N[C@H](C(=O)N1CCC[C@H]1C(=O)N[C@H](C(=O)NCC(=O)N[C@@H](CO)C(=O)N[C@@H](CC(N)=O)C(=O)N[C@H](C(=O)N[C@@H](Cc1ccc(O)cc1)C(N)=O)[C@@H](C)O)C(C)C)[C@@H](C)O, synthetic analogue of human amylin; also called compound 72) | 259 | 247 | 221 | 0.851 |  |  |  | 
{C20 diacid-γGlu}-GRCNTATCATQRLAHFLRHSSPNFGAIPSSTNVGSNTY-NH2 (disulfide 3-8; SMILES CC[C@H](C)[C@H](NC(=O)[C@H](C)NC(=O)CNC(=O)[C@H](Cc1ccccc1)NC(=O)[C@H](CC(N)=O)NC(=O)[C@@H]1CCCN1C(=O)[C@H](CO)NC(=O)[C@H](CO)NC(=O)[C@H](Cc1c[nH]cn1)NC(=O)[C@H](CCCNC(=N)N)NC(=O)[C@H](CC(C)C)NC(=O)[C@H](Cc1ccccc1)NC(=O)[C@H](Cc1c[nH]cn1)NC(=O)[C@H](C)NC(=O)[C@H](CC(C)C)NC(=O)[C@H](CCCNC(=N)N)NC(=O)[C@H](CCC(N)=O)NC(=O)[C@@H](NC(=O)[C@H](C)NC(=O)[C@@H]1CSSC[C@H](NC(=O)[C@H](CCCNC(=N)N)NC(=O)CNC(=O)CC[C@H](NC(=O)CCCCCCCCCCCCCCCCCCC(=O)O)C(=O)O)C(=O)N[C@@H](CC(N)=O)C(=O)N[C@@H]([C@@H](C)O)C(=O)N[C@@H](C)C(=O)N[C@@H]([C@@H](C)O)C(=O)N1)[C@@H](C)O)C(=O)N1CCC[C@H]1C(=O)N[C@@H](CO)C(=O)N[C@@H](CO)C(=O)N[C@H](C(=O)N[C@@H](CC(N)=O)C(=O)N[C@H](C(=O)NCC(=O)N[C@@H](CO)C(=O)N[C@@H](CC(N)=O)C(=O)N[C@H](C(=O)N[C@@H](Cc1ccc(O)cc1)C(N)=O)[C@@H](C)O)C(C)C)[C@@H](C)O, also called compound 99) |  |  |  |  | 79.8 | 100 | 216 | 2.7
